In this assay the target is biotin-labeled soluble FcRn protein (UniProt P55899). Kind of assay: SPR; pH 6.0.
Chain of biotin-labeled soluble FcRn protein (P55899 24-297, chain 1 of 2): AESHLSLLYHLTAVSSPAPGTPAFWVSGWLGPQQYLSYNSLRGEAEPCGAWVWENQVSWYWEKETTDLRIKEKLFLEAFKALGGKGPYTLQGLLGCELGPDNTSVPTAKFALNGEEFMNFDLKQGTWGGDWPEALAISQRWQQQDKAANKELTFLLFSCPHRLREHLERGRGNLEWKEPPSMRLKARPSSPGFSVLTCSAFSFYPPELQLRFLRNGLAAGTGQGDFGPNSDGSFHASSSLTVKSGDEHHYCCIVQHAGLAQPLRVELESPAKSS
Chain of biotin-labeled soluble FcRn protein (main, as listed by the source, chain 2 of 2): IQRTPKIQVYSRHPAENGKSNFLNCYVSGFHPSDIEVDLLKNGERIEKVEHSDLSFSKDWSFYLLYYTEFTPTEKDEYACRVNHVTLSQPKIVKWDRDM

Usually Kd stands for a measure of binding affinity in units of concentration. The low end stands for higher affinity, the high end for lower affinity. In turn, 1-B10-9 (from UniProt P0DOX5 233-449) displayed a Kd of 0.119 µM.

“novel IgG1 Fc monomer (sFc) (from UniProt P0DOX5 233-449)” came in with a Kd of 0.106 µM.

(Values after patent US20210206847A1.)
